This passage reports EC50 results from patent publication US20230122862A1.

This experiment concerns the target CD23 coated on ELISA plates (UniProt P06734). Description: ELISA, CD23 coated, pre-formed mAb:IgE complex added, anti-human IgG Fc-HRP detection. On the technique in general: In an ELISA, binding on a coated surface is turned into a signal by an enzyme label.

Substance “pre-formed UB-221:IgE complex (from UniProt P01854 1-428)” returned an EC50 of 0.0416 µg/mL.

Usually EC50 stands for the concentration that produces a half-maximal response.
